Assay results as given in patent publication US20100273722A1, “MODIFIED MINIATURE PROTEINS” (Yale University, priority 2007, published 2010).

T1: human Lck (residues 62-128) SH3 domain-GST fusion (human), P06239
T1 chain: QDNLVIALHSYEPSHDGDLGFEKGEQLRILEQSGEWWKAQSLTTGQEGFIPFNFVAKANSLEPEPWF


Experiments:
[1] = molecular target: human Fyn (residues 81-142) SH3 domain-GST fusion protein (human), P06241; assay: fluorescence polarization, 50 nM labeled peptide, SH3-GST titrated
[2] = molecular target: T1, human Lck (residues 62-128) SH3 …; assay: as above
[3] = molecular target: human Lyn (residues 62-122) SH3 domain-GST fusion protein (human), P07948; assay: as above
[4] = molecular target: Down-regulated Hck kinase (containing an N-terminal His6 tag); assay: cell-based or functional assay

human Lyn (residues 62-122) SH3 domain-GST fusion protein (human), P07948, sequence (P07948 62-122): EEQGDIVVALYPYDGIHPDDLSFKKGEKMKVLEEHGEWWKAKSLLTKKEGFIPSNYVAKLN
human Fyn (residues 81-142) SH3 domain-GST fusion protein (human), P06241, sequence (P06241 81-142): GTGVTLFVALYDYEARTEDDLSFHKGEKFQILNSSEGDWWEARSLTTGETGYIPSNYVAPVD

Binder	Kd [1] [nM]	Kd [2] [nM]	Kd [3] [nM]	Activity (nmol · sec^-1), activator at 50 micromolar (nmol · sec^-1) [4]	Fold-Activation, activator at 50 micromolar [4] [fold]	Kact (concentration of activator at half-maximal activation) [4] [µM]
CGGAPPLPPRNRPR (modifications not checked) [^Flu1, fluorescently labeled analog of Peptide 1]	1400	> 20000	2000			
APPLPPRNRGDDAPVEDLIRFYDNLQQYLNVVTRHRY (designed binder) [PP2]				139	13	48
APPLPPRNPGDDAPVEDLIRFYDNLQQYLNVVTRHRY (designed binder) [PP1]				83.6	8	
APPLPPRNRPRDAPVEDLIRFYDNLQQYLNVVTRHRY (designed binder) [PP3]				83.9	7	48
